Where a chain is given by its changes, count along the chain named. One block for each binder: values may come before it.
Target: Mouse CD3εδ Fc heterodimer (mouse) (UniProt P22646)
Test: BLI (Octet), IgG avidity, pH 7.4

Kd: 510 nM
B2: Antibody No. V010 (ADI-70327) IgG1 (antibody, V domains shown)
VH: QVQLVQSGAEVKKPGASVKVSCKASGFDIKDYYMHWVRQAPGQRLEWIGWIELENDDTVYDAKFQGRVTITRDTSASTAYMELSSLRSEDTAVYYCARDAYGRYFYDVWGQGTLVTVSS
VL: DIVMSQSPDSLAVSLGERATINCKSSQSLLNARTGKNYLAWYQQKPGQPPKLLIYWASTRSSGVPDRFSGSGSGTDFTLTISSLQAEDVAVYYCVQSYFRRTFGGGTKVEIK

Kd: 530 nM
B4: Antibody No. V013 (ADI-70330) IgG1 (antibody, V domains shown)
VH: B2 VH with D28N, K30D, E52D, D56A, D57N, Y60D
VL: B2 VL

Further lines, the binder ahead of its results:

B1: Antibody No. A002 (ADI-50024) IgG1 (antibody, V domains shown)
VH: B2 VH with D28N, E52D, D56A, D57N
VL: B2 VL
Kd: 91 nM

B3: Antibody No. V009 (ADI-70326) IgG1 (antibody, V domains shown)
VH: B2 VH with D56A
VL: B2 VL
Kd: 360 nM

— patent US20240317858A1
